Data on 22 sequences can be found in the supplement of paper PMC9170038.

This series deals with MS2 coat protein. Briefly: apparent KD of MS2 coat protein; designed switch direction (-1 OFF switch, 1 ON switch): -1; higher = weaker reporter binding. The essentials: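 Designed RNA switches sharing common flanks were transcribed on Illumina chips by stalled E. coli RNA polymerase. They were titrated with SNAP-549-labelled MS2 coat protein, from 0.7 or 1.5 nM doubling to 3 µM, in Tris-HCl pH 7.5 buffer with KCl, MgCl2, BSA, DTT, tRNA and Tween-20. Titrations ran without input, with 200 uM small-molecule ligand, or with an oligonucleotide input. The apparent KD of each design is the median over its clusters, after curve-fitting of normalised cluster fluorescence.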

Setting [1] is: input ligand: microRNA oligo, concentration not stated.
Where [2] appears, read: Eterna round: R95, input ligand: FMN 200 uM.
Where [3] appears, read: Eterna round: R95, input ligand: microRNA oligo, concentration not stated.
The mark [4] stands for this setting: Eterna round: R95, input ligand: none.

With “AGCUGUGGCCGAGGAUAUCUAACAGUCCCAACCGAAAUAUAAUCGGACAUGAGGAUCACCCAUGUAGAGAAGGCGGUCUCAGCA [Eli eng2 - 072] (Eterna round: R96, puzzle: Exclusion NG 2)”, the “apparent KD of MS2 coat protein” value was found to be 324 nM (input ligand: FMN 200 uM), 157 nM under setting [1] and 222 nM (input ligand: none).

Take “AGGACGGCAGGAUAUACAUGAGGAUCACCCAUGUCUGGUGUCGAGCUAAUUGUGCAUAGUAGAAGGGUCGCUCC [Eternabot (L1) Solution 39] (Eterna round: R97, puzzle: Exclusion 3)”: the “apparent KD of MS2 coat protein” value by setting is: (input ligand: FMN 200 uM) 204 nM; (input ligand: none) 62.1 nM.

Regarding “AGGAGACAUGAGGAUCACCCAUGUGAGGAUAUCGAUGUUACGUGGAUAACCACUUCGUUGAGAAGGCACGCUUC [Eternabot (L2) Solution 55] (Eterna round: R97, puzzle: Exclusion 1)”, the “apparent KD of MS2 coat protein” value (input ligand: FMN 200 uM) worked out at 43 nM and the “apparent KD of MS2 coat protein” value (input ligand: none) was determined as 38.6 nM.

“AGGAUGUAAGGAUAUCCAAGGGUAACGCCAAUGGCAGCCCAGGAGAAGGUACAUGAGGAUCACCCAUGUGAUAA [Leatbi] (Eterna round: R97, puzzle: Exclusion 4)”: the “apparent KD of MS2 coat protein” value (input ligand: FMN 200 uM) stood at 263 nM and the “apparent KD of MS2 coat protein” value (input ligand: none) was determined as 80.8 nM.

As to “AGGAUGUUAGGAUAUGCUAGAGUACUACAGAGUACUACGGAGCAGAAGGAACAUGAGGAUCACCCAUGUCACCU [Exclusion 4 R4 S1] (Eterna round: R97, puzzle: Exclusion 4)”, the “apparent KD of MS2 coat protein” value stood at 19.9 nM (input ligand: FMN 200 uM) and 14 nM (input ligand: none).

Regarding “AGGCGUGCUGAGGAUAUACUACCGGGUGCGAUAGUAGAAGGUAGCACAUGAGGAUCACCCAUGUGGUCAGAUGC [Qureaor] (puzzle: Exclusion 6)”, the “apparent KD of MS2 coat protein” value runs as follows: under setting [2], 56.3 nM; under setting [3], 20 nM; under setting [4], 23.6 nM.

For the sequence “AGGGAGCGAGGAUAUACAGAGUAGGAAACCACUCCCUCAGUACAUGAGGAUCACCCAUGUAGAAGGCGCCCGAA [EX2 A.8] (Eterna round: R97, puzzle: Exclusion 2)”, the “apparent KD of MS2 coat protein” value came out at 39.2 nM (input ligand: FMN 200 uM) and 31.5 nM (input ligand: none).

“AGGGAGUCAGGAUAUUAUUUUUAGCGGGAUAACGCUGAGGGUGAGAAGGGACAUGAGGAUCACCCAUGUUUUGA [JR_Ex4_Sub075] (Eterna round: R97, puzzle: Exclusion 4)”: the “apparent KD of MS2 coat protein” value amounted to 167 nM (input ligand: FMN 200 uM) and 183 nM (input ligand: none).

Turning to “AGGGAUAAAGGAUAUACAUGAGGAUCACCCAUGUUGAGGAAAGUGAGAUGAGGAGGAAGUAGAAGGUUAGGCGG [JR_Exclu3_Sub084] (puzzle: Exclusion 3)”, the “apparent KD of MS2 coat protein” value worked out at 35.7 nM under setting [2], 33.9 nM under setting [3] and 31.4 nM under setting [4].

As to “AGGUCCUUCUGGAGACAUGAGGAUCACCCAUGUCGGGUCAGCGAGGAUAUCGGUCAAUAAUGUGACGAGAAGGCGCGGACCGAU [Ex NG3 #57] (Eterna round: R96, puzzle: Exclusion NG 3)”, the “apparent KD of MS2 coat protein” value was found to be 55.5 nM (input ligand: FMN 200 uM), 17.1 nM under setting [1] and 19.9 nM (input ligand: none).

With “AGGUGCUUCUGGAGACAUGAGGAUCACCCAUGUCGAGUUAGCGAGGAUAUCGGUAAGGCAUGUGAUGAGAAGGCGCAAACCGAU [Ex NG3 #50] (Eterna round: R96, puzzle: Exclusion NG 3)”, the “apparent KD of MS2 coat protein” value is, setting by setting: (input ligand: FMN 200 uM) 22.8 nM; under setting [1], 12.7 nM; (input ligand: none) 24.3 nM.

As to “AGGUGUAGAGGAUAUCGAAUCCUUUACAUGAGGAUCACCCAUGUCCUGGGCACCCAGGACCGAGAAGGCUACACCA [Omei Ex5 D33] (Eterna round: R97, puzzle: Exclusion 5)”, the “apparent KD of MS2 coat protein” value came to 40.2 nM (input ligand: FMN 200 uM) and 2350 nM (input ligand: none).

As for “AGGUUGUGAGGAUAUUAGUUAUAUGAUUGGAGGAGUAUGGCUGAGAAGGCACAUGAGGAUCACCCAUGUAGAUC [JR_Ex4_Sub048] (Eterna round: R97, puzzle: Exclusion 4)”, the “apparent KD of MS2 coat protein” value by setting is: (input ligand: FMN 200 uM) 555 nM; (input ligand: none) 162 nM.

For “AGUAACAGAGGAUAUACUGUUUUAUGUGUUUAUUGUUUUAAACAUGAGGAUCACCCAUGUAGAAGGCUGAAUAA [JMF 85] (puzzle: Exclusion 2)”, the “apparent KD of MS2 coat protein” value under setting [3] stood at 25.5 nM.

In the case of “AGUAACAGAGGAUAUACUGUUUUAUGUGUUUGUUAUUUUAAACAUGAGGAUCACCCAUGUAGAAGGCUGAAUAA [JMF 83] (puzzle: Exclusion 2)”, the “apparent KD of MS2 coat protein” value under setting [3] worked out at 21.4 nM.

With “AGUAACCGUCACGAAAGUGAUGGUUACACAAGCAAUGAAACAUGAGGAUCACCCAUGUCCUCAUUUGCUCGUCUUAU [Sensor 3 - 40] (puzzle: Sensor v3, turn-off variant 2)”, the “apparent KD of MS2 coat protein” value was 25.5 nM under setting [2], 486 nM under setting [3] and 26.8 nM under setting [4].

“AGUACUAACACGAAAGUGUUAGUACAAUAAGCUAGUGGAACAUGAGGAUCACCCAUGUCCUCAUUAGCUCGUCUUAG [Mat - Sensor v3 - Turn-off var 2 - D35] (puzzle: Sensor v3, turn-off variant 2)”: the “apparent KD of MS2 coat protein” value under setting [2] was found to be 15.4 nM, the “apparent KD of MS2 coat protein” value under setting [3] was determined as 39.7 nM and the “apparent KD of MS2 coat protein” value under setting [4] was determined as 15.1 nM.

With “AGUACUAACACGAAAGUGUUAGUACAAUAAGCUUGUGAAACAUGAGGAUCACCCAUGUCCUCAUAAGCUCGUCUUAU [Mat - Sensor v2 -ver2- JL mod - D68] (Eterna round: R96, puzzle: Sensor v2, turn-off variant 2)”, the “apparent KD of MS2 coat protein” value runs as follows: (input ligand: FMN 200 uM) 15.4 nM; under setting [1], 468 nM; (input ligand: none) 17.6 nM.

“AGUACUAACACGAAAGUGUUAGUACAAUAAGCUUGUGAAACAUGAGGAUCACCCAUGUCCUCAUAAGCUCGUCUUAU [salish99_TOv2_r3_001again] (puzzle: Sensor v3, turn-off variant 2)”: the “apparent KD of MS2 coat protein” value is, setting by setting: under setting [2], 16.7 nM; under setting [3], 648 nM; under setting [4], 15.9 nM.

On to “AGUACUAGCACGAAAGUGUUAGUACAAUAAGCUUGUGAAACAUGAGGAUCACCCAUGUCCUCAUAAGCUCGUCUUAU [salish99_TOv2_r3_020] (puzzle: Sensor v3, turn-off variant 2)”, for which the “apparent KD of MS2 coat protein” value turned out to be 18.2 nM under setting [2], 429 nM under setting [3] and 16 nM under setting [4].

“AGUACUAUGCGAGCUGACUUGCGUAGUGCAGCAGGUGUAACAUGAGGAUCACCCAUGUCCUCAUUUGCUCGUCUUAU [Mat - Sensor v3 - Turn-off var 2 - D8] (puzzle: Sensor v3, turn-off variant 2)”: the “apparent KD of MS2 coat protein” value under setting [2] came to 250 nM, the “apparent KD of MS2 coat protein” value under setting [3] was found to be 326 nM and the “apparent KD of MS2 coat protein” value under setting [4] was 248 nM.

In the case of “AGUAGAUCUACGCUUGCGUGGAUCUGCAAUGCAGGUGUUACAUGAGGAUCACCCAUGUCCUCAUUUGUUCGUCUUAG [JL turnoff v2 99.09] (puzzle: Sensor v3, turn-off variant 2)”, the “apparent KD of MS2 coat protein” value by setting is: under setting [2], 568 nM; under setting [3], 322 nM; under setting [4], 395 nM.
